The supplement of paper PMC12455559
± gives the standard deviation of the averaged measurements.

Assays:
[1] = melting temperature (DSF); higher = more thermostable
Summary of the method: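 Enzymes made in E. coli C41(DE3) were nickel-bead purified and cut free with SUMO protease before testing. Differential scanning fluorimetry gave each melting temperature. For this, 5 μL 5X Sypro Orange was added to 45 μL enzyme (0 to 0.3 mg/mL) in sealed PCR plates, and a Bio-Rad CFX96 read fluorescence from 25 °C over 250 cycles of 0.3 °C each, ramping at 0.3 °C/s.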

[2] = PET hydrolysis, aromatic products released after 48 h (umol product/mg enzyme); higher = more PET depolymerization activity
Summary of the method: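 Candidate enzymes, made tagless by SUMO cleavage and purified on nickel beads, were added at 5 μg (50 μL) to 3.5 mg of either amorphous PET film or crystalline PET powder in 450 μL buffer. The sealed plates stood unshaken for 48 h at 40 or 60 °C. Activity on PET is the aromatic product found in the supernatant per mg enzyme, read at 260 and 280 nm against buffer blanks.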

[3] = purified protein yield per well (BCA); higher = higher soluble expression
Summary of the method: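 Expression was done in E. coli C41(DE3), using 2 mL autoinduction cultures with 100 µg/mL kanamycin incubated at 37 °C for 2 h and at 18 °C for 40 h. Protein was purified on Ni-charged magnetic beads and released by SUMO protease cleavage. Yield of purified protein per well was measured with the Pierce Rapid Gold BCA kit; values below 25 ug (0.1 mg/mL) are below detection.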

[4] = substrate: aFilm, 40 °C, pH 5.5
[5] = substrate: aFilm, 40 °C, pH 6.5
[6] = substrate: aFilm, 40 °C, pH 7.5
[7] = substrate: aFilm, 40 °C, pH 8.5
[8] = substrate: aFilm, 60 °C, pH 5.5
[9] = substrate: aFilm, 60 °C, pH 6.5
[10] = substrate: aFilm, 60 °C, pH 7.5
[11] = substrate: aFilm, 60 °C, pH 8.5
[12] = substrate: cryPow, 40 °C, pH 5.5
[13] = substrate: cryPow, 40 °C, pH 6.5
[14] = substrate: cryPow, 40 °C, pH 7.5
[15] = substrate: cryPow, 40 °C, pH 8.5
[16] = substrate: cryPow, 60 °C, pH 5.5
[17] = substrate: cryPow, 60 °C, pH 6.5
[18] = substrate: cryPow, 60 °C, pH 7.5
[19] = substrate: cryPow, 60 °C, pH 8.5
[20] = substrate: aFilm, 40 °C, pH 4.5
[21] = substrate: aFilm, 60 °C, pH 4.5
[22] = substrate: cryPow, 40 °C, pH 4.5
[23] = substrate: cryPow, 60 °C, pH 4.5

Sequence | melting temperature [1] [C] | PET hydrolysis [2, 4] | PET hydrolysis [2, 5] | PET hydrolysis [2, 6] | PET hydrolysis [2, 7] | PET hydrolysis [2, 8] | PET hydrolysis [2, 9] | PET hydrolysis [2, 10] | PET hydrolysis [2, 11] | PET hydrolysis [2, 12] | PET hydrolysis [2, 13] | PET hydrolysis [2, 14] | PET hydrolysis [2, 15] | PET hydrolysis [2, 16] | PET hydrolysis [2, 17] | PET hydrolysis [2, 18] | PET hydrolysis [2, 19] | purified protein yield per well [3] [µg] | PET hydrolysis [2, 20] | PET hydrolysis [2, 21] | PET hydrolysis [2, 22] | PET hydrolysis [2, 23]
AGNPYERGPSPTAASIAADRGPFATAQVTVPRGNGFGGGVIYYPTDTSQGTFGAIAIAPGFNTAWSYYAWQGPRLASFGFVVIGIETNTLNDYADARATQLLAALDYLVNSSPVRDRVDRDRLAVGGHSMGGGGALLAATQRPSLLTAVGQAPYVPNGNLSGIKSPTIIFAGQADGTVTPQYAQNAYNTIPADVERAYVEIANEGHGFPAGGGGGNSGAFARTMMVWLKLFIDKDTRYAPFLCPTLSNANGISKYMASCPLDPPGGGPTASPTASPTATPSSTPTGPPPATSALKGVASGRCLDVNGASQANGAQAQIWDCNGQNNQQWTTTSAGELRVYGNKCLDVNGGSTADGTSVIIWDCNGQNNQKWRLNSDGTITAVGANKCLDVSGAGTANGTKTQIWTCHGGTNQKWTRV [DP092] | 68.5 | < 3 | < 3 | < 3 | < 3 | < 3 | < 3 | < 3 | < 3 | 7 ± 1.4 | 13.5 ± 3.5 | 15 | 18.5 ± 2.1 | < 3 | < 3 | < 3 | < 3 | 197 |  |  |  | 
AGNPYQRGPDPTLASVAASRGTFATAQVSVPAGNGFNGGTIYYPTDSSQGTWGAVAIVPGYTALFANEEAWMGPWLASFGFVVIGIETNSRTDFDTARGTQLLAALDYLTQKSPVRDRVDSARLGVIGHSMGGGGVVYATEHRPSLKAAVALAPFSPSQDMSTDHVPTMVMGGQNDTVVTPSYLDGLYATMPASTQSDFVQLAGADHVAYTHPNTTEMRLLIPWLKIFLDDDTRYTQFLCPLMDSTGVSAYHSKCPYVPPGGSTSTPTPTPTITPTPPPSGACSATYRTVNSWSGGYQGEVTVTAGDAAINGWTVRWNLGGGQTVTQVWNGTLSTSGSTATVTNASYNGSLQASASTTFGFLANGTPSTPAITCTSP [TEP114] | 41.8 | < 3 | < 3 | < 3 |  | < 3 | < 3 | < 3 |  | 12.5 ± 0.71 | 24.5 ± 3.5 | < 3 |  | 9 ± 1.4 | 1.5 ± 2.1 | < 3 |  | 407 | < 3 | < 3 | 7 | 6 ± 1.4
AGNPYQRGPDPTLASVAASRGTFATAQVSVPPGNGFNGGTIYYPTDTTQGTWGAVAIVPGYTALFANEEAWMGPWLASFGFVVIGIETNSRNDFDTARGTQLLAALDYLTQKSPVRDRVDSARLGVIGHSMGGGGVVYATEHRPSLKAAVALAPFSPSQDMSTDHVPTMVMAGQNDTVVTPSYLDGLYATMPASAQSDFVQLAGADHVAYTHPNTTEMRLLIPWLKIFLDDDTRYTQFLCPLKDSTGVSMYRAKCPYVPPGGPTTSPTPTTTPTPPDGGACSATYRTVNSWSGGYQGEITVTAGGAAIDGWTVRWSLGGGQTVTQVWNGTLSTSGSTASVANASYNGSLQASASTTFGFLANGTPSTPALTCSSP [ESM084] | 43.9 |  |  |  |  |  |  |  |  | 5 | < 3 | < 3 |  | < 3 | < 3 | < 3 |  | 119 |  |  | < 3 | < 3
AIEHRRGPAPSEQSVLAANGPFSHSTFAVSDAASAKFGKGTIYYPNDTSQGTFGGVAISPGYTSTEPHIAWLGTRLAAHGFVTITITTNSLYDNPTERGQQLLAALDYLANNAPLAIRQRLDTSRMGVVGHSMGGGGSLYAVWNRPALKAAVPLAPYHTIKNWSGIKTPTMIIGGSADGVAPVEEHSERFYSSMTYARERAYAELEGANHSGSFLFEDHPIIGKFTVAWLKRFIDGDTRYDQFLCPPPTGAYLTEYRASCPHA [DP006] | 46.9 |  |  |  |  |  |  |  |  | < 3 | < 3 | < 3 | 5 |  |  |  |  | 28 |  |  |  | 
ALNPYQRGPDPTDALLEAPRGPFATASTTVSRLSVSGFGGGVIYYPTDTSQGTFGGIAISPGYTASWSSLDWLGPRIASHGFVVIGIDTLSRYDQPASRGRQLLAALDYLTQRSSVRGRVDASRLAVAGHSMGGGGSLEAADSRPSLQAAVPLAPWHTTKNWSGVRVPTMIIGGESDSVAPVSTHSELFYASIPASSEKAYLELNGASHFFPNTTNTTMAKSMVSWLKRFVDDDVRYDPFLCPGPDGSAVEEYRQTCPLS [TEP140] | 51.4 |  |  |  |  |  |  |  |  | < 3 | < 3 | 4 |  |  |  |  |  | 36.5 |  |  | < 3 | 
ANPYERGPAPTKASIEATTGYFATAKVTVAKSSVSGFGGGTIYYPTSTTSGTFGAIALVPGFTNVQSAVAWLGPRVASQGFVVFIIDTNSVYDSPDSRGTQLLAALDYLTNTSTVKSRVDATRLGVMGYSMGGGGALSATKTRTSIKASVPMAPYHSTKTWTTVKTPTLIVTGQSDTTAPPASHGLAFYNSLSTSIDKAYMELKGAGHSAPTSANTTIAKYSISWFKRFIDDDTRYDQFLCPNPTDTTISSYKSTCNYS [DP082] | 61.9 |  |  |  |  |  |  |  |  | 5 | 76 | 100 | 93 | < 3 | 13 | 22 | 32 | 88 |  |  |  | 
ANPYERGPDPTLASVEATSGTFAYASLSVSSGNGFGGGTIYYPTSTTDGTFAGIVTCPGFTNSGSSMAWFGKVLASQGFVTLVMNPKSNLDFPDARATQMLAALDWLTNSSSVKTRIDATRLGVLGQSMGGGATLKASKTRPSLKASFATAPYNSDKDWSTNTVPQFLFGMQNDTTAAVTNHALKFYNSLPATTPKIYAELRGAGHSTATSPNTSIRRYAVSFMKRNLDNDTRYSQFLCPGPTITSSSPLSAFMSNCLF [DP080] | 63.1 | < 3 | < 3 | < 3 | 1.5 ± 2.1 | < 3 | < 3 | < 3 | < 3 | < 3 | 2 ± 2.8 | 6 | 8 ± 1.4 | < 3 | < 3 | < 3 | < 3 | 291 |  |  |  | 
ANPYERGPNPTQALLEARSGPFSVSSERAWRLGSDGFGGGTIYYPRENNTYGAVAISPGYTGTQASVAWLGERIASHGFVVITIDTNTTLDQPDSRADQLEAALDHMVDGASSTVRSRIDRNRLAVMGHSMGGGGTLRLASQRPDLKAAIPLTPWHLNKSWSNVQVPTLIIGADLDTIAPVLTHAEPFYNSIPTSTRKAYLELDGATHFAPNITNSTIGMYSVAWLKRFVDEDTRYTQFLCPGPRTGLFSDVEEYRSTCPF [TEP014] | 54.1 | < 3 | < 3 | < 3 |  | < 3 | < 3 | < 3 |  | < 3 | 1.5 ± 2.1 | 4.5 ± 0.71 |  | < 3 | < 3 | < 3 |  | 267 | < 3 | < 3 | < 3 | < 3
APDTVVGNPFARGPDPTKESIEAERGPFAVATEKVPGGKGFGGGTIHYPTDTSQGTFGAIAVAPGFTESESAIAWYGPRLASQGFVVITISTNGLWDLPASRADQLLAALRHVTDASQIKSRVDRDRLAVMGHSMGGGGSLIAARNNPALKATIPLTGWNPNTSFSDLKVPTFVVSAQNDFIAPDGSHSRPFYQSLPASLNKAYMRLAGVGHMAPVNPNVTIAKYSISWLKRFVDNDTRYSQFLCPLPTGDPKIAAYEGTCPLS [DP008] | 50.5 |  |  |  |  |  |  |  |  | 4 | 20 | 40 | 50 | < 3 | 9 | 9 | 9 | 67 |  |  |  | 
APGPSAPCSNCTRGPNPTEASLKSDRGPFTTARFSVSGFLKGFGDSTVYYPTNTTGRMGAIAVIPGYLSYESSIEWWGPRLASHGFVVMTMNTSTIYDQPDSRATQLSKALDYLIAQSNTSSSPIYNKIDSTRLGAIGWSMGGGGSLKLSTQRSLNAIIPQAPWYSGSNSFNTIKTPALILACSADTVAPVSVHASPFYNRIPGSTPKAFLEIYGGSHFCANSGYPNEDLLGLYGIAWMKRFIDFDNRYSQFLCGPNHEGDFAISDYRQNCPY [ESM096] | 52 |  |  |  |  |  |  |  |  | < 3 | 6 | 22 |  |  |  |  |  | 33.4 |  |  | < 3 | 
APNAAIAAAPRVAPAANPYERGPAPTEESVKAEKGPFDIAQMPVPGGAGVFGGGTIWYPKDEAGPFGAVVVSPGFMTLEPLIQWYGRTLASHGFVVMTMATITPIDPPFSRGDELRSALDYLVTKSTVKDKIDPTRTALMGHSMGGGGTLDAASKLPDLKAAIPLAPWNLDYAPPAKIKAPTLIIGADNDPIAPTAAFADPFYAALTTQNRAYLKLKNAGHTFSFLGYNPTITKYTVSWLKRFVDNDTRYDQFLCPIPAASDTVAAYQGTCPLT [DP091] | 53.8 |  |  |  |  |  |  |  |  | < 3 | < 3 | < 3 | < 3 |  |  |  |  | 32 |  |  |  | 
APPARVAALATTAYQRGPAPTLSGVRAALGPFSYSTASVSAAATGYTFGGGTVYYPDDTSQGTFGGIAVTPGYTGTEGSIAWLGPRLASQGFVVITIATKSLYDQPTARGQQLLAALDYLKTYSPAAVRQRLDPQRLAVSGHSMGGGGALYAVWSRPSLKAAVPLAPYHTIKNWSAITVPTLIEAGTADTVTPVGTFAEPIYQSLTGASERAYAEVAGANHLTFTAENPLIGGLEVAWMKRFVDDDARYDQFLCPAPTDPGLTEYRDSCPTS [TEP101] | 56.5 | < 3 | < 3 | < 3 |  | < 3 | < 3 | < 3 |  | 9 ± 1.4 | 18.5 ± 0.71 | 24 ± 2.8 |  | 3 | 7.5 ± 0.71 | 7.5 ± 0.71 |  | 377 | < 3 | < 3 | < 3 | < 3
AQENPYERGPAPTAQNITEDGPFAYATATVPAQSGFAGGAIYYPTDTSQGTFGAVAAVPGFLTPVDDVAWMGPRLASHGFVVFTIEPNSRFEFPSGRAAALKAGLTYLTQSSAVRDRVDPTRLAVAGHSMGGGAALEAALKDPNLKAAVALQPWHTGVNFSTVNVPSMIVGAENDPIASPASHAEPFYEQIPAASEKAYLNLAGVGHEVGGVVTNDTQSSMMLTWLKRYVDNDTRYEPFMCPGPSGSSVLEYRGTCPG [TEP170] | 49.3 |  |  |  |  |  |  |  |  | < 3 | < 3 | < 3 |  | < 3 | < 3 | < 3 |  | 137 |  |  | < 3 | < 3
